{"source": "the RNAGym collection of RNA variant scans (doi:10.1021/acssynbio.7b00057)", "parents": {"B1": {"name": "Pistol ribozyme (parent)", "chain": "GGGUCGUUGUUCCAUAAUCGCGUGGAUAUGGCACGCAAGUUUCUACCGGGCACCGUAAAUGUCCGACUGGAGCCGUUCGGGCGGCUAUAAACAGACCUCAGGCCCGAAGCGUGGCGGCACCUGCCGCCGGUGGUAAAAAAGAUCGGAAGAGCACACGUCU"}}, "data": [{"variants_of": "B1", "assay": "aptazyme ON/OFF ratio, guanine; higher = stronger switching; co-transcriptional cleavage with and without guanine", "values": [{"variant": "U8G G9A U10G U11G C12A C13U", "aptazyme ON/OFF ratio": 1.41}, {"variant": "U8G G9A U10G U11G C12A C13G", "aptazyme ON/OFF ratio": 1.16}, {"variant": "U8G G9A U10G U11G C12A C13A", "aptazyme ON/OFF ratio": 1.57}, {"variant": "U8G G9C U10C C12A", "aptazyme ON/OFF ratio": 1.05}, {"variant": "U8G G9C U10C C12U", "aptazyme ON/OFF ratio": 1.03}, {"variant": "U8G G9C U10C C12G", "aptazyme ON/OFF ratio": 1.08}, {"variant": "U8G G9C U10G U11C C12G C13A", "aptazyme ON/OFF ratio": 1.08}, {"variant": "U8G G9C U10G U11C C12G C13U", "aptazyme ON/OFF ratio": 1.08}, {"variant": "U8G G9C U10G U11C C12G C13G", "aptazyme ON/OFF ratio": 1.05}, {"variant": "U8G G9A U11G C12U C13A", "aptazyme ON/OFF ratio": 1.2}, {"variant": "U8G G9A U11G C12U C13U", "aptazyme ON/OFF ratio": 1.24}, {"variant": "U8G G9A U11G C12U C13G", "aptazyme ON/OFF ratio": 1.16}, {"variant": "U8G G9C U10G C12U", "aptazyme ON/OFF ratio": 1.06}, {"variant": "U8G G9C U10G C12G", "aptazyme ON/OFF ratio": 1.19}, {"variant": "U8G G9C U10G C12A", "aptazyme ON/OFF ratio": 1.19}, {"variant": "U8G G9C U10C U11G C12A C13A", "aptazyme ON/OFF ratio": 1.08}, {"variant": "U8G G9C U10C U11G C12A C13U", "aptazyme ON/OFF ratio": 1.04}, {"variant": "U8G G9C U10C U11G C12A C13G", "aptazyme ON/OFF ratio": 1.05}, {"variant": "U8G G9A U10G U11G C13U", "aptazyme ON/OFF ratio": 1.45}, {"variant": "U8G G9A U10G U11G C13G", "aptazyme ON/OFF ratio": 1.15}, {"variant": "U8G G9A U10G U11G C13A", "aptazyme ON/OFF ratio": 1.56}, {"variant": "U8G G9C U11A", "aptazyme ON/OFF ratio": 1.13}, {"variant": "U8G G9C U10C U11C C12U C13U", "aptazyme ON/OFF ratio": 1.04}, {"variant": "U8G G9C U10C U11C C12U C13G", "aptazyme ON/OFF ratio": 1.04}, {"variant": "U8G G9C U10C U11C C12U C13A", "aptazyme ON/OFF ratio": 1.04}, {"variant": "U8G G9A U10G U11A C12A C13U", "aptazyme ON/OFF ratio": 1.48}, {"variant": "U8G G9A U10G U11A C12A C13G", "aptazyme ON/OFF ratio": 1.27}, {"variant": "U8G G9A U10G U11A C12A C13A", "aptazyme ON/OFF ratio": 1.29}, {"variant": "U8G G9A U10C U11G C12A C13U", "aptazyme ON/OFF ratio": 1.16}, {"variant": "U8G G9C U10C U11C", "aptazyme ON/OFF ratio": 1.04}, {"variant": "U8G G9C U10C U11G", "aptazyme ON/OFF ratio": 1.27}, {"variant": "U8G G9C U10C U11A", "aptazyme ON/OFF ratio": 1.07}, {"variant": "U8G G9C U10A U11G C13U", "aptazyme ON/OFF ratio": 1.05}, {"variant": "U8G G9C U10A U11G C13A", "aptazyme ON/OFF ratio": 1.08}, {"variant": "U8G G9C U10A U11G C13G", "aptazyme ON/OFF ratio": 1.04}, {"variant": "U8G G9C U11A C12A", "aptazyme ON/OFF ratio": 1.11}, {"variant": "U8G G9C U10C U11A C12G", "aptazyme ON/OFF ratio": 1.06}, {"variant": "U8G G9C U10C U11A C12A", "aptazyme ON/OFF ratio": 1.05}, {"variant": "U8G G9C U10C U11A C12U", "aptazyme ON/OFF ratio": 1.06}, {"variant": "U8G G9C U10C U11C C12G C13U", "aptazyme ON/OFF ratio": 1.08}, {"variant": "U8G G9C U10C U11C C12G C13A", "aptazyme ON/OFF ratio": 1.11}, {"variant": "U8G G9C U10C U11C C12G C13G", "aptazyme ON/OFF ratio": 1.09}, {"variant": "U8G G9A U10G U11A C13G", "aptazyme ON/OFF ratio": 1.21}, {"variant": "U8G G9A U10G U11A C13A", "aptazyme ON/OFF ratio": 1.14}, {"variant": "U8G G9A U10G U11A C13U", "aptazyme ON/OFF ratio": 1.14}, {"variant": "U8G G9A U11C C12A C13G", "aptazyme ON/OFF ratio": 1.16}, {"variant": "U8G G9A U11C C12A C13A", "aptazyme ON/OFF ratio": 1.34}, {"variant": "U8G G9A U11C C12A C13U", "aptazyme ON/OFF ratio": 1.3}, {"variant": "U8G G9C U10C C13U", "aptazyme ON/OFF ratio": 1.07}, {"variant": "U8G G9C U10C C13A", "aptazyme ON/OFF ratio": 1.03}, {"variant": "U8G G9C U10C C13G", "aptazyme ON/OFF ratio": 1.04}, {"variant": "U8G G9C U10G U11C C12U C13G", "aptazyme ON/OFF ratio": 1.02}, {"variant": "U8G G9C U10G U11C C12U C13A", "aptazyme ON/OFF ratio": 1.03}, {"variant": "U8G G9C U10G U11C C12U C13U", "aptazyme ON/OFF ratio": 1.03}, {"variant": "U8G G9A U10G U11G C12U C13U", "aptazyme ON/OFF ratio": 1.29}, {"variant": "U8G G9A U10G U11G C12U C13G", "aptazyme ON/OFF ratio": 1.46}, {"variant": "U8G G9A U10G U11G C12U C13A", "aptazyme ON/OFF ratio": 1.36}, {"variant": "U8G G9C U10C U11C C13A", "aptazyme ON/OFF ratio": 1.06}, {"variant": "U8G G9C U10C U11C C13U", "aptazyme ON/OFF ratio": 1.03}, {"variant": "U8G G9C U10C U11C C13G", "aptazyme ON/OFF ratio": 1.01}, {"variant": "U8G G9C U10G U11G C12U C13A", "aptazyme ON/OFF ratio": 1.16}, {"variant": "U8G G9C U10G U11G C12U C13G", "aptazyme ON/OFF ratio": 1.14}, {"variant": "U8G G9C U10G U11G C12U C13U", "aptazyme ON/OFF ratio": 1.28}, {"variant": "U8G G9C U10G U11A C12A C13U", "aptazyme ON/OFF ratio": 1.11}, {"variant": "U8G G9C U10G U11A C12A C13G", "aptazyme ON/OFF ratio": 1.11}, {"variant": "U8G G9C U10G U11A C12A C13A", "aptazyme ON/OFF ratio": 1.12}, {"variant": "U8G G9A U11A C12U C13U", "aptazyme ON/OFF ratio": 1.27}, {"variant": "U8G G9A U11A C12U C13G", "aptazyme ON/OFF ratio": 1.18}, {"variant": "U8G G9A U11A C12U C13A", "aptazyme ON/OFF ratio": 1.24}, {"variant": "U8G G9C U10C U11G C12U", "aptazyme ON/OFF ratio": 1.25}, {"variant": "U8G G9C U10C U11G C12A", "aptazyme ON/OFF ratio": 1.07}, {"variant": "U8G G9C U10C U11G C12G", "aptazyme ON/OFF ratio": 1.1}, {"variant": "U8G G9A U10G U11A C12G C13G", "aptazyme ON/OFF ratio": 1.03}, {"variant": "U8G G9A U10G U11A C12G C13U", "aptazyme ON/OFF ratio": 1.24}, {"variant": "U8G G9A U10G U11A C12G C13A", "aptazyme ON/OFF ratio": 1.21}, {"variant": "U8G G9C C12G", "aptazyme ON/OFF ratio": 1.05}, {"variant": "U8G G9C C12U", "aptazyme ON/OFF ratio": 1.07}, {"variant": "U8G G9C C12A", "aptazyme ON/OFF ratio": 1.07}, {"variant": "U8G G9C U10C U11A C12U C13A", "aptazyme ON/OFF ratio": 1.04}, {"variant": "U8G G9C U10C U11A C12U C13U", "aptazyme ON/OFF ratio": 1.04}, {"variant": "U8G G9C U10C U11A C12U C13G", "aptazyme ON/OFF ratio": 1.02}, {"variant": "U8G G9A U11G C12A C13A", "aptazyme ON/OFF ratio": 1.16}, {"variant": "U8G G9A U11G C12A C13U", "aptazyme ON/OFF ratio": 1.24}]}]}
